Test results as given in the nanobody polyreactivity screen of Harvey et al. (2022).

Test: yeast display, Sf9 membrane polyspecificity reagent, FACS + sequencing; frameworks hold sequencing errors
In short: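 In a synthetic yeast display library (Saccharomyces cerevisiae BJ5465), nanobody expression was induced with galactose for 36–48 hours. FACS gates were set low and high (top ~1%) using anti-HA fluorescence for expression and streptavidin fluorescence for binding of the Sf9 membrane reagent. Each polyreactivity label is drawn from the gate of origin.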

Row | Sequence | polyreactivity (PSR sort gate)
1 | QVQLVESGGGLVHAGGTIEPYAMGWYRQAPGKERELVAPIRTSGGGTYYADSVKGRFTISRDNAKNTVYLQMYSLKPEDTAVYYCAAKSGPTLQRYYSYIFDYWGQGTQVTVSS | low polyreactivity
2 | QVQLVESGGGLVQAGGSLRLSCAHSASNFGIYAMGWYRQAPGKERELVAPITWYGTSTYYADSVKGRFTISRDNSKNSVYLQMNSLKPEDTAVYYCATAYIQVSATFYEYEYWGQGTQVTVSS | low polyreactivity
3 | QVQLVESGGGLVQAGGSLRLSCAASGGNFLAYAMGWYRQAPGKERELVAAITRRGTRTYYADSVKGRFTISRDNAKNTVYLQMNSLKPEDTAVYYCAADYYPASAGFDYWGQGTQVTVSS | high polyreactivity
4 | QVQLVESGGGLVQAGGSLRLSCAASGFIFARNAMGWYRQAPGKERELVAVISTRGRTYYADSVKGRFTISRDNAKNTVYLQMNSLKPEDTAVYYCNADKVIGYDYWGQGTQVTVSS | high polyreactivity
5 | QVQLVESGGGLVQAGGSLRLSCAASGYTFRVYTMGWYRQAPGKERELVAAISRRGSRTYYADSVKGRFTISRDNAKNSVYLQMNSLKPEDTAVYYCAAGIPYPDDYWGQGTQVTVSS | high polyreactivity
6 | QVQLVESGGGLVEAGGSLRLSCAASGRIFKYYAMGWYRQAPGKERELVAAISRGGSTYYADSVKGRFTISRDNAKNTVYLQMNSLKPEDTAVYFCAAVNGWRRVLRFDYWGQGTQVTVSS | high polyreactivity
7 | QVQLVHSGGRLVQAGGRLRLSCAASGSTFSSYARGRYIQGPRKERELVAAISWNGGSTYYADSVKGRFTISRDNAKNTVYLQMNSLKPQDTAVYYCAAIYFRNTYSYGMDYWGQGTQVTVSS | high polyreactivity
8 | QVQLVESGGGLVQAGGSLRLSCAASGSIFTRYAMGWYRQAPGKERELVAAISQSGGNTYYADSVKGRFTISRDNAKNTVYLQMNSLKPEDTAVYYCAARWPWTHTRGYWGQGTQVTVSS | high polyreactivity
9 | QVQLVESGGGLVQAGGSLRLSCAASGRIFWYYVMGWYRQAPGKEREFVASISSGGSTYYADSVKGRFTISRDNAKNTVYLQMNSLKPEDTAVYYCNAYVYGQRVWYDYWGQGTQVTVSS | high polyreactivity
10 | QVQLVESGGGLVQAGGSLRLICAASGYTFPRYTMGWYRQAPGKERELVAAITSSGSTNYADSVKGRFTISRDNAKNTVYLQMNCLKPEDTAVYYCATLYRDWWSGYLEVDYWGQGTQVTVSS | high polyreactivity
11 | QVQLVESGGGLDQAGGSLRLSCAASGSIFTQYAMGWYRQAPGKERELVAAITSGGSTYADSVKGRFTISRDNAKNTVYLQMNSLKPEDTAVYYCATPYSYRGVTFNYWGQGTLVTVSS | low polyreactivity
12 | QVQLVESGGGLVQAGGSLRLSCAASGSILPYYAMGWYRQAPGKERELVAAISVSGGGTYYADSVKGRFTISRDNAKNTVYLQMNSLKPEDTAVYYCARNVNAQKVLGGFDSWGQGTQVTVSS | low polyreactivity
13 | QVQLVESGGGLVQAGGSLRLSCAASGRTIKRYAMGWYRQAPGKERELVATISRSGSSTYYADSVKGRFTISRDNAKNTVYLQMNSLIPEDTAVYYCNAYVPDIWVNGYDSWGQGTQVTVSS | high polyreactivity
14 | QVQLVESGGGLVQAGGSLRLSCAASGRTFRWYAMGWSRPAPGKERELVASISRGGSKSYADSVKGRFTISRDNAKNTVYLQMNSLKPEDTAVYYCNAKYRLEMDLGQGTQVTVSS | high polyreactivity
15 | QVQLVESGGGLVQAGGSLRLSCAASGRIFKFNAMGWYREAPGKERELVAAITTGGGSTYYADSVKGRFTISRDNAKNTVYLQMNSLKPEDTAVYYCATDRRHEYSSRRYYYWGQGTQVTVSS | high polyreactivity
16 | QVQLVESGGGLVQAGGSLRLSCAASGSTFRYNAMGWYRQAPGKERELVAAITSGGTTNYADSVKGRFTISRDNAKNTVYLQMNSLKPEDTAVYYCAKKRPGFLRYGSIGEFQYDYWGQGTQVTVSS | low polyreactivity
17 | QVQVVESGGGLVQAGGSLRLSCAASGRTFIGNAMGWYRQAPGKERELVAAMSRSGGSTSYADSVKGRFTISRDNAKNTVYLQMNSLKPEDTAVYYCAKGYRGYSYGYWGQGTQVSVSS | high polyreactivity
18 | QVQLVESGGGLVQAGGSLRLSCAAYGFFFPFYTMGWYRQAPGKERELVAAIRYSAGRTYYADSVKGRFTISRDNAKNTVYLQMNSLKPEDTAVYYCAADAIYSRAWGFDYWGQGTQVTVSS | high polyreactivity
19 | QVQLVESCGGLVQEGGSLRLSCAASGFTFLRYAMGWYRQAPGKERELVAAISIPGGNTYYADSVKGRFTISRDNAKNTVYLQMNSLKPEDTAVYYCAARFGGGAARHGYWGQGTQVTVSS | high polyreactivity
20 | QVQLVESRGGLVQAGGSLRLSCAASGRIFGSYAMGWYRQAPGKERVLVAAISYSGGSTYYADSVKGRFTISRDNAKNTVYLQMNSLKPEDTAVYYSNVDRYYGYFSVRGGYWGQGTQVTVSS | low polyreactivity
21 | QVPLVESGGGIVQAGGSLRLSCAASGRTFRYNAMGWDRQAPGKEREKVAAITYGGGSTYYADSVKGRFTISRDNEKNTVYLQMNILKPEDTAVYYCATRGVSPSRPGYYCGQGTQVTVSS | high polyreactivity
22 | QVQLVESGGGLVQAGGSHRLSCAASGRTFSTYSMGWYRQAPGKERELVAAISSGGGRTYYADSVKGRFTISRDIAKNTVYLQINSLKPEDTAVYDGAADRYFRSRRSYEYWGQGTQVTVSS | low polyreactivity

Row | Sequence | polyreactivity (PSR sort gate)
23 | QVQLVESGGGLVQAGGSLRLSCAASGRIFLPYAMGWYRHAPGKERELVAAISRTGDRTYYADSVKGRFTISRDNAKNTVYLHMNSLKPEDTAVYYCNTSLPPTVIRYHLRYPRYDHWGQGTQVTVSS | low polyreactivity
24 | QVQLVESGGGLVQAGGSLRLSCAASGIIFFYYGMGWYIQAPGKERELVARISSGGSTNYADSVKGRFTISRDNAKITVYLQMNSLKQEDTAVYYCAARISTRYGYWGQGTQVTVSS | low polyreactivity
25 | QVQLVESGGGLVQAGGSLRLSCAASGSTFQWYAMGWYRQAPGKERELVAAITKSGGSTYYADSVKGRFTISRDNAKNTVYLQMNSLKPEDTAVYYCAAGFWYYATEYDYWGQGTQVTVSS | low polyreactivity
26 | QVQLVESGGGLVQAGGSLRLSSAASGRISQNAIGWYRQAPGKERELVAAITFSGGSTYYADSVKGRFTISRDNAKNTVFLQMNSLKPEDTAVYYCAAEDRPLYWRFPDEMDYWGQGTQVTVSS | low polyreactivity
27 | QVQLVESGGGLVQAGGSLRLSCAASGSTFTANAMGWYRQAPGKERELVAAISRSGGSTYYADSVKGRFTISRDNAKNTVYLQMNSLKPEDTAVYYCAADEYYQVSAYDYWGQGTQVTVSS | low polyreactivity
28 | QVQLVESGGGLVQAGGTLRLSCAASGFTLSVYAMGWYIQAPGKDRELVAAITRSTGSTYYADSVKGRFTISRDNAKNTVYLQMNSLKPEDTAVYYCNAGHFAHHHGYYRSKYDYWGQGTQVTVSS | low polyreactivity
29 | QVQLVESGGGLVQAGGSLRLSCSASGFTYDYYAMGWYRQAPGKERELVATISVSAVSTSYADSVKGRFTISRDNAKNTVYLQMNSLKPEDTAVYYCAASRGPYYYHYSGSLKSFDYWGQGTQVTVSS | low polyreactivity
30 | QVQLVESGGGLVQAGGSLRLSCAASGSIFLNNAMGWYRQAPGKERELVAAITRNVGSTYYADSVKGRFTISRDNEKNTVYLQMNSLKPEDTAVYYCAADRRRRYDYWGQGTQVTVSS | low polyreactivity
31 | QVQLVESGGGLDQAGGSLRLSCAASGSIFWSYDRGWYRQAPGKETELVATITSGDSTYYADSVKGRFTISRDNEKNTVYLPMKSLKPEDTAVYYCAAGTFYRPTYCHREYDYWGQGTQVTVSS | low polyreactivity
32 | QVQLVESGGGLVQAGGSLRISCAASGGTFLYYAMGWYRQAPGKERELVAAISRGGSTHYADSVKGRFTISRDNAKNTVYLQMNSLKPEDTAVYYCAVDGGEFSSYGYWGQGTQVTVSS | low polyreactivity
33 | QDQLVESGGGLVQAGGSLRLSCAASGFIIQGNAMGGYRQAPRKERELVAAISSSVSTYYADSVKGRFTISRDNAKNTVYLQMNSLKPEDTAVYYCNSGFPLSLWLGDYWGQGTQVTVSS | low polyreactivity
34 | QVQLVESGGGLVQAGGSLRLSCAASGRTFEHYVMGWYRQAPGKERELVAAISNSGDTTFYADSVKGRFTISRDNAKNTVYFQMNSLKPEDTAVYYCNADSYWHWGEWLYAPYDYWGQGTQVTVSS | low polyreactivity
35 | QVQLVESGGRLVQAGGSLRLSCAASGLTFPVYAMGWYRQAPGKEREFVASISGRGASTYYADSVKGRFTISRDNAKNTVYLQMNSLKPEDTAVYYCNADVWLLSYFPEYDYWGQGTQVTVSS | low polyreactivity
36 | QVQLVESGGGLVQAGGSLRLSCAASGSIFSYYAMGWYRQAPGKERELVAAINGGDSTNYADSVKGRFTISRDNAKNTVYLQMNSLKPEDTAVYYCAADNYDAALLFEYYYWGQGTQVTVSS | low polyreactivity
37 | QVQLVESGGGLVQAGGSLRLSCAASGRILVYYAMGWYRQATGKERELVAAITASGASTYYADSVKGRFTISRDNAKKTVYLQMNSLKPEDTAVYYCKVLYPRKYWQVREYYWGQGTQVTVSS | high polyreactivity
38 | QVQLVESGGGLVQAGGSLRLSCAASGNIFPPNTMGWYRQAPGKERELVAVITWSDGGTYADSVKGRFTISRDNAKNTVYLQMNSLKPEDSAVYYCNADYYFAAPKGEYTAWYDYWGQGTQVTVSS | low polyreactivity
39 | QVQLVESGGGLVQAGGSLRLSCAASGRIFGVNAMGWYRQEPGKERELVAAISAGGGNTYYADSVKGRFTISRDNAKNTVYLQMNSLKPEDTAVYYCNVHRSLRMDYWGQGTQVTVSS | high polyreactivity
40 | QVQLVESGGGLVQAGGSLRLSCAASGRIFHFYVMGWYRQAPGKERELVASITRGGNTNYADSVKGRFTISRDNAKNTVYLQMNSLKPEDTAVYYCNGEGYYTRDDSWGQGTQVTVSS | low polyreactivity
41 | QVQLVESGGGLVQAGGSLRLSCAASGLTFYYYAMGWYRQAPGKERELVAAITSGGITYYADSVKGRFTISRDNEKNTVYLQMNSLKPEDTAVYYCAARYHIDTLFYGSRYDYWGQGTQVTVSS | high polyreactivity
42 | QVQLVESGGGLLQARGSLRLTCAASGIIFIKYAMGWYRQPPGKDRELVASSTSGGSTHYADSVKGRFTISRDNAKNTVYLQMNSLIPEETSVYYCNADILRHDAYFKDRYQAGSYWGLGTQVTVSS | low polyreactivity
43 | QVQLVESGGGLVQAGGSLRISCAASGSPIWNYVMRWYRKAPGKVRDLVAAISIVGSTYYADSVKGRFTSSRDNAKNTVYFELNILKPEDTAVNYCNAGYFGGSNASKVRLSYDHWGQGTDVTVSS | low polyreactivity
